Results as given in patent publication US5739291A, “Glutamate receptor antibodies” (The Salk Institute For Biological Studies, priority 1995, dated 1998).

Molecular target: T1, homomeric GluR6 receptor (Rattus norvegicus, UniProt P42260, I567V/Q621R/Y571C)
T1 construct: A 4559 base pair cDNA encoding a protein of 884 amino acid residues was engineered from RC11 and RC27; expressed in transfected cells; host or cells: Xenopus oocytes injected with in vitro transcribed GluR6 RNA
Test: Homomeric GluR6 ion channel in Xenopus oocytes injected with in vitro transcribed RNA
Type: cell-based

T1 sequence (P42260 with tags, fused parts or gaps I567V/Y571C/Q621R): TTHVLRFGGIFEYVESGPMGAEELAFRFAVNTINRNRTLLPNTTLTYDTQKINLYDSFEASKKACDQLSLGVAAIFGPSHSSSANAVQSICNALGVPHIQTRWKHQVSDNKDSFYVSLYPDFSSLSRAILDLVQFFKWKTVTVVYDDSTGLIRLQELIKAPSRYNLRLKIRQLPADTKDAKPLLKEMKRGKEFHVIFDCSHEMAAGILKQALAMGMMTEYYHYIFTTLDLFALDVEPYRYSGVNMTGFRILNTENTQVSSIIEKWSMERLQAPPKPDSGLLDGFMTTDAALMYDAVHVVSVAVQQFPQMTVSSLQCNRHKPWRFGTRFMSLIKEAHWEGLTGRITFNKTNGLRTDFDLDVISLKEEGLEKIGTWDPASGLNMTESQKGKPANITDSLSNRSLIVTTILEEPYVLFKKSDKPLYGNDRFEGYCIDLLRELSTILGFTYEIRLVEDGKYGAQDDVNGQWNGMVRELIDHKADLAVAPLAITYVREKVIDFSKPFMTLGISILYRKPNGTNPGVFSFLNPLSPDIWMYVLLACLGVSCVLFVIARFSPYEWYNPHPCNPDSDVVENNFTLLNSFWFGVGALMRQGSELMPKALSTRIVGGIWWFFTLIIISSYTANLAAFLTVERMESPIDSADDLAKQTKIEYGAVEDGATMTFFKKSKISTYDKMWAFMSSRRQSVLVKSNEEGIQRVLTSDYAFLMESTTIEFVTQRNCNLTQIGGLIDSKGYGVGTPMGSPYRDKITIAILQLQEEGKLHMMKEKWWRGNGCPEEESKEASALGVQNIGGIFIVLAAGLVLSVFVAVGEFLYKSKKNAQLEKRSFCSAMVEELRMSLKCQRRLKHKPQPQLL

B1: concanavalin A (protein)
chain: STHETNALHFMFNQFSKDQKDLILQGDATTGTDGNLELTRVSSNGSPQGSSVGRALFYAPVHIWESSAVVASFEATFTFLIKSPDSHPADGIAFFISNIDSSIPSGSTGRLLGLFPDANVIRNSTTIDFNAAYNADTIVAVELDTYPNTDIGDPSYPHIGIDIKSVRSKKTAKWNMQNGKVGTAHIIYNSVDKRLSAVVSYPNADSATVSYDVDLDNVLPEWVRVGLSASTGLYKETNTILSWSFTSKLKSN
notes: concanavalin A, used to decrease receptor desensitization
effect on desensitization (10 μM for 5 minutes): efficiently decreases desensitization | increase of current elicited by kainate and glutamate compared to peak current before treatment (equimolar agonist concentrations): 75 to 150 fold
